Measurements as given in the supplement of paper PMC9170038.

Test system: MS2 coat protein
Experiment: apparent KD of MS2 coat protein; designed switch direction (-1 OFF switch, 1 ON switch): -1; higher = weaker reporter binding
How it was run: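 The reported apparent KD is a per-design median over clusters, from curve fits of normalised cluster fluorescence. Protein titrations used SNAP-549-labelled MS2 coat protein, doubled from 0.7 or 1.5 nM to 3 µM, in Tris-HCl pH 7.5 buffer with KCl, MgCl2, BSA, DTT, tRNA and Tween-20, with no input, 200 uM small-molecule ligand, or an oligonucleotide input. The RNA switches were transcribed on Illumina chips by stalled E. coli RNA polymerase.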

[1] = Eterna round: R95, input ligand: microRNA oligo, concentration not stated
[2] = Eterna round: R95, input ligand: FMN 200 uM
[3] = Eterna round: R95, input ligand: none
[4] = input ligand: microRNA oligo, concentration not stated

| Sequence | apparent KD of MS2 coat protein (input ligand: FMN 200 uM) | apparent KD of MS2 coat protein (input ligand: none) | apparent KD of MS2 coat protein [1] | other results |
| --- | --- | --- | --- | --- |
| ACAAGCGCGAAAGUCUUAUACAUGAGGAUCACCCAUGUUCUCAAGGUCUUAUGUACUGACACGAUUACUCGUCUUAU [AK-miRNA-r3-4] (Eterna round: R97, puzzle: Sensor, turn-off variant 1) | 0.117 µM | 0.112 µM |  |  |
| GUGUACAGAGGAUAUACAAUAGGAGUUACGAAAGUAACUUCACAUGAGGAUCACCCAUGUAGAAGGCUGUACAC [Dot plot directed v8] (puzzle: Exclusion 2) |  |  | 0.0177 µM |  |
| GUUAGUUAAGGAUAUACUGGGAGCUGCGGCGUCUCGCCGCAACAUGAGGAUCACCCAUGUAGAAGGUGACCGUU [JL ViennaUCT Enbibi mod 6] (puzzle: Exclusion 2) |  |  | 0.283 µM |  |
| CGCAAUGGAGGAUAUACAUGAGGAUCACCCAUGUGGUCCUUGAGAUUCCAAAAGUCAAGUAGAAGGUCAGCGGC [Eternabot (L1) Solution 45] (Eterna round: R97, puzzle: Exclusion 3) | 1.21 µM | 1.6 µM |  |  |
| AUAUACGGAGGAUAUACUUGAGGAUCACCCAAGUGGAGUCCCGUUUGGGCGGUAAAUAGUAGAAGGCCGACCCA [jl-ex3-4.43 ViennaUCT mod] (Eterna round: R97, puzzle: Exclusion 3) | 0.0141 µM | 0.0165 µM |  |  |
| CCAUCGAGUGUGAGGAUAUGCUGGUCCUUGGAUCAGCAGAAGGCACAUGAGGAUCACCCAUGUGGAAACGGUGG [Mat - Exclusion 4 - JL Mod - D77] (puzzle: Brourd's mod of Exclusion 4) |  |  | 0.0277 µM |  |
| CGUGUGUCAGGAUAUUAGUAAUGUAUGGAUACAUAUAUUACUGAGAAGGGACAUGAGGAUCACCCAUGUAUACG [JR_Ex4_Sub059] (Eterna round: R97, puzzle: Exclusion 4) | 0.158 µM | 0.0799 µM |  |  |
| UAUUAACAAGUAAGAUCCCACAUGAGGAUCACCCAUGUGCUCGUCUUAUAAGGUACUGUGACGAAAGUCACGGUACC [Dup of Eli's R95 Sensor 3, v1 - 87] (Eterna round: R97, puzzle: Sensor, turn-off variant 1) | 0.0163 µM | 0.0165 µM |  |  |
| AAAUAGCUUGAGGAUAUUGGACUGGAUUCAGUGCGAGAAGGCAAGACAUGAGGAUCACCCAUGUUGUGUUGGGA [EX6 #10] (Eterna round: R97, puzzle: Exclusion 6) | 0.18 µM | 0.0916 µM |  |  |
| AGUGUGUUAGGAUAUCGCAUAUGCUGGAGGAGGUGGAGUUACGAGAAGGAACAUGAGGAUCACCCAUGUAGGAC [JR_Exclu4_Sub050] (puzzle: Exclusion 4) |  |  | 0.0257 µM |  |
| AGUACUAACACGAAAGUGUUAGUACUAUAAGUUUGUGUUACAUGAGGAUCACCCAUGUCCUCAUAAGCUCGUCUUGU [Mat - Sensor v3 - Turn-off var 2 - D95] (puzzle: Sensor v3, turn-off variant 2) |  |  | 0.199 µM | apparent KD of MS2 coat protein [2]: 0.911 µM; apparent KD of MS2 coat protein [3]: 0.627 µM |
| GUGGGUUAUGUCAGGAUAUGGCCGUUAGGGCGACGCCAGAAGGGACAUGAGGAUCACCCAUGUCUCCGGGCAUC [BmEX4 C.10] (Eterna round: R97, puzzle: Brourd's mod of Exclusion 4) | 0.0151 µM | 0.0148 µM |  |  |
| ACAUGACAGCUAGGAUAUAAAUGACAUGAGGAUCACCCAUGUUGUCCCAUGUUGAGGAUCACCCAUUAGAAGGAGCCACCCAUG [Exclusion NG2 S1] (Eterna round: R96, puzzle: Exclusion NG 2) | 0.0928 µM | 0.0853 µM |  | apparent KD of MS2 coat protein [4]: 0.0492 µM |
| GUGUACGGAGGAUAUAUAUGGGCAGCAUACGCUGCAGCUUCACAUGAGGAUCACCCAUGUAGAAGGCUGUACAC [Mat - Exclusion 2 - Mod of Hyphema - D100] (puzzle: Exclusion 2) |  |  | 0.022 µM |  |
| UGCGGGCUUUUGAGACCUCACAUGAGGAUCACCCAUGUGCUUGUCUUGUGAGUGGGUAGGUCGUUGGCUGACUCACG [Sensor-V1 #99] (Eterna round: R97, puzzle: Sensor, turn-off variant 1) | 0.0234 µM | 0.0231 µM |  |  |
| AACAAGCUUUUAAGAUGAAAGAUAGUAGGUAGCUCCUUUACAUGAGGAUCACCCAUGUUUGUGUAGCUCGAUCUUAU [JR_SV3TOV2_Sub076] (puzzle: Sensor v3, turn-off variant 2) |  |  | 0.0374 µM | apparent KD of MS2 coat protein [2]: 0.0123 µM; apparent KD of MS2 coat protein [3]: 0.0115 µM |

| Sequence | apparent KD of MS2 coat protein (input ligand: FMN 200 uM) | apparent KD of MS2 coat protein (input ligand: none) | apparent KD of MS2 coat protein [1] | other results |
| --- | --- | --- | --- | --- |
| CUUCGUAAUGUCAGGAUAUUUUCGAGGGCAACUCAAAAGAAGGGACAUGAGGAUCACCCAUGUGGCAACGUCAU [Eternabot (L2) Solution 83] (Eterna round: R97, puzzle: Brourd's mod of Exclusion 4) | 0.177 µM | 0.0519 µM |  |  |
| UUUAGUAUCUAGGAUAUCUAGUACAUAGUAUCUAGAGAAGGAGAUACAUGAGGAUCACCCAUGUUCUGUGAUCU [Exclusion 6 - 2:b] (puzzle: Exclusion 6) |  |  | 0.118 µM |  |
| UCCAAGCGGAAGCAAUGAAACAUGAGGAUCACCCAUGUCCCGGUGGUCAUUCACCCAAGCUUUUUGUAGUCAACCUU [Eternabot (L1) Solution 42] (Eterna round: R97, puzzle: Sensor, turn-off variant 1) | 0.249 µM | 0.297 µM |  |  |
| AUAAUACAUGAGGAUCACCCAUGUGAGGAUAUGAGCCUACAUUCACGCAGAGAGAAGGUCAGAAGGCACUUGGU [Eternabot (L2) Solution 65] (Eterna round: R97, puzzle: Exclusion 1) | 0.211 µM | 0.0633 µM |  |  |
| AUUCCACAUGAGGAUCACCCAUGUCAGGAUAUGCAUAGUCCUGCCACAUAGGACUAGCGCAGAAGGGAUCGGGC [Eternabot (L2) Solution 20] (Eterna round: R97, puzzle: Exclusion 1) | 0.0539 µM | 0.019 µM |  |  |
| GUAAUGCUGCGAGGAUAUACAUGAGGAUCACCCAUGUGGAUGUCUGAGGCAAAGCCUCAGACGAUGUAGAAGGCGCAGUAAAAU [Mat - Exclusion NG 2 - Mod of JL - D54] (Eterna round: R96, puzzle: Exclusion NG 2) | 0.0857 µM | 0.0444 µM |  | apparent KD of MS2 coat protein [4]: 0.0176 µM |
| CCGCAUAAGCAGGAUAUCGUAUCGGAAACGAUACGAGAAGGGUUAACAUGAGGAUCACCCAUGUUCCUUAACGG [Fiskers Ex 6 - 30] (puzzle: Exclusion 6) |  |  | 0.0175 µM |  |
| UGCAAGCUUUUAAGAUCCUACAUGAGGAUCACCCAUGUGCUCGUCUUAUAACGUACUGUGACGAAAGUCACGGUACG [JL TOV1 3.95] (Eterna round: R97, puzzle: Sensor, turn-off variant 1) | 0.105 µM | 0.114 µM |  |  |
| CUAACAUGCUGGUGAUCAUACAUGAGGAUCACCCAUGUAACAAGCUUUUUGUUCGUCUUAAUUUAAUUGAUUACUAG [Stov1/8-B3] (Eterna round: R97, puzzle: Sensor, turn-off variant 1) | 0.177 µM | 0.254 µM |  |  |
| CUUCUGUGAGGAUAUGUUAGUUCCCAGCAAAUCGCUGGGAGACAGAAGGCACAUGAGGAUCACCCAUGUGGGCG [Vexeanra] (Eterna round: R96, puzzle: Exclusion 4) | 0.612 µM | 0.0647 µM |  | apparent KD of MS2 coat protein [4]: 0.0498 µM |
| UCUCGCGGGCAAGGAUAUCCCACGCUGUUCUGGCCCGUGUUUGUUACAUGAGGAUCACCCAUGUGGGAGAAGGUGCACCAGGGC [Design 42] (Eterna round: R96, puzzle: Exclusion NG 2) | 0.218 µM | 0.168 µM |  | apparent KD of MS2 coat protein [4]: 0.0963 µM |
| ACAUGUUAUUUAGGAUAUUGGACACAUGAGGAUCACCCAUGUACCCGGAGGCUUUACUAUGAGUUCGAGAAGGAGAUGUACAUG [Ex NG2 #70] (Eterna round: R96, puzzle: Exclusion NG 2) | 0.0893 µM | 0.0756 µM |  | apparent KD of MS2 coat protein [4]: 0.0593 µM |
| CAUGGAACAUAGGAUAUCUCGCGGCUAGGCUGCAGAGAAGGAUGUACAUGAGGAUCACCCAUGUAUGAUCCAAU [Ataratin] (puzzle: Exclusion 6) |  |  | 0.0163 µM |  |
| AGUAACCGUCACGAAAGUGAUGGUUACACAAGAAAUGAAACAUGAGGAUCACCCAUGUCCUCAUUUGCUCGUCUUAU [Sensor 3 - 38] (puzzle: Sensor v3, turn-off variant 2) |  |  | 0.288 µM | apparent KD of MS2 coat protein [2]: 0.176 µM; apparent KD of MS2 coat protein [3]: 0.259 µM |
| ACUCAGUGAGGAUAUCGCCAAAGAGCCGUAACGGCCUUUGAUGAGAAGGCACAUGAGGAUCACCCAUGUAAGCA [EX4 C.1] (Eterna round: R97, puzzle: Exclusion 4) | 0.387 µM | 0.122 µM |  |  |
| ACAUGUCCUGAGGAUAUCAAAGUCCUCCCGACAUGAGAAGGCAGGACAUGAGGAUCACCCAUGUGGAGCAGGGA [Aarorbeti] (Eterna round: R97, puzzle: Exclusion 6) | 0.42 µM | 0.111 µM |  |  |
